Results as given in the Human Domainome abundance scans (Beltran et al. 2025).
± gives the uncertainty stated by the source.

B1: Intersectin-2, residues 1129 to 1183; numbered along this chain, Q9NZM3 (parent)
chain: VCQVIAMYDYAANNEDELSFSKGQLINVMNKDDPDWWQGEINGVTGLFPSNYVKM
B2: Zinc finger homeobox protein 3, residues 2147 to 2202; numbered along this chain, Q15911 (parent)
chain: RPRTRITDDQLRVLRQYFDINNSPSEEQIKEMADKSGLPQKVIKHWFRNTLFKERQ

Variants of: B1
Assay: abundance fitness (aPCA) (normalised: wild type 0, dead -1); higher = more abundant; growth selection in yeast, the domain comes from the species named
Settings: Homo sapiens

Variant | abundance fitness
M55R | -0.088 ± 0.052
M55L | -0.095 ± 0.033
M55V | -0.103 ± 0.042
M55T | -0.06 ± 0.079
M55A | 0.079 ± 0.24
M55Q | -0.09 ± 0.082
M55W | -0.255 ± 0.078
M55K | -0.233 ± 0.21
M55G | -0.097 ± 0.078
M55E | 0.009 ± 0.18
M55S | 0.007 ± 0.06
K54Y | -0.104 ± 0.026
K54T | 0.014 ± 0.047
K54L | -0.177 ± 0.034
K54P | -0.507 ± 0.076
K54G | -0.172 ± 0.056
K54V | -0.161 ± 0.033
K54M | -0.154 ± 0.056
K54H | -0.068 ± 0.032
K54Q | -0.049 ± 0.042
K54S | -0.055 ± 0.047
K54N | -0.08 ± 0.047
K54W | -0.388 ± 0.12
K54R | 0.099 ± 0.052
K54I | -0.123 ± 0.048

Variants of: B2
Assay: as above
Settings: Homo sapiens

Variant | abundance fitness
T7G | -0.2 ± 0.067
T7Y | -0.388 ± 0.13
T7E | -0.133 ± 0.081
T7F | -0.432 ± 0.17
T7R | -0.174 ± 0.067
T7Q | -0.253 ± 0.088
T7V | -0.208 ± 0.074
T7M | -0.162 ± 0.094
T7P | -0.086 ± 0.1
T7I | -0.596 ± 0.13
T7N | -0.204 ± 0.11
T7K | -0.336 ± 0.09
T7H | -0.336 ± 0.13
T7C | -0.367 ± 0.11
T7A | -0.024 ± 0.074
T7S | 0.054 ± 0.079
T7L | -0.273 ± 0.077
I6G | -0.48 ± 0.08
I6Q | -0.529 ± 0.11
I6P | -0.108 ± 0.12
I6K | -0.332 ± 0.11
I6T | -0.448 ± 0.11
I6C | -0.4 ± 0.12
I6V | -0.084 ± 0.072

Variant | abundance fitness
I6D | -0.484 ± 0.12
I6L | 0.179 ± 0.076
I6S | -0.46 ± 0.098
I6R | -0.727 ± 0.086
I6Y | -0.123 ± 0.11
I6E | -0.408 ± 0.091
I6F | -0.052 ± 0.12
I6N | -0.401 ± 0.14
I6H | -0.241 ± 0.14
I6W | -0.477 ± 0.1
R5V | 0.129 ± 0.07
R5W | -0.054 ± 0.11
R5G | -0.023 ± 0.067
R5P | 0.127 ± 0.084
R5H | 0.074 ± 0.083
R5K | 0.093 ± 0.1
R5T | 0.137 ± 0.068
R5N | 0.201 ± 0.084
R5C | 0.076 ± 0.093
R5E | 0.155 ± 0.12
R5Q | -0.027 ± 0.1
R5S | 0.088 ± 0.065
R5A | -0.051 ± 0.076
R5I | 0.148 ± 0.074

Variant | abundance fitness
R5F | 0.08 ± 0.083
R5M | 0.138 ± 0.09
R5L | 0.143 ± 0.07
R5D | 0.235 ± 0.087
P2A | -0.134 ± 0.1
P2N | 0.28 ± 0.22
P2W | -0.679 ± 0.11
P2M | 0.171 ± 0.19
P2D | 0.38 ± 0.14
P2H | 0.012 ± 0.15
P2C | -0.608 ± 0.14
P2S | 0.102 ± 0.092
P2V | 0.018 ± 0.09
P2T | 0.279 ± 0.11
P2I | 0.105 ± 0.15
P2Y | -0.057 ± 0.18
P2G | -0.005 ± 0.084
P2R | 0.127 ± 0.091
P2E | 0.184 ± 0.14
P2L | 0.086 ± 0.096
P2Q | 0.215 ± 0.17
R1L | -0.303 ± 0.17
R1F | -0.385 ± 0.39
R1M | -0.573 ± 0.2

Variant | abundance fitness
R1C | -0.134 ± 0.21
R1A | -0.652 ± 0.41
R1N | 0.078 ± 0.32
R1S | -0.399 ± 0.14
R1G | -0.247 ± 0.091
R1Y | 0.022 ± 0.28
R1E | -0.832 ± 0.21
R1P | -0.165 ± 0.26
R1W | -0.979 ± 0.18
R1I | -0.433 ± 0.46
R1T | -0.271 ± 0.16
D8R | -0.226 ± 0.064
D8H | 0.026 ± 0.13
D8Q | 0.061 ± 0.092
D8G | -0.063 ± 0.062
D8I | -0.122 ± 0.12
D8P | 0.149 ± 0.095
D8W | -0.277 ± 0.079
D8A | -0.022 ± 0.067
D8E | -0.012 ± 0.076
D8F | -0.204 ± 0.1
D8S | 0.02 ± 0.075
D8N | -0.211 ± 0.11
D8V | -0.05 ± 0.065

Variant | abundance fitness
D8M | -0.096 ± 0.086
D8T | -0.001 ± 0.081
D8L | -0.028 ± 0.067
D8Y | -0.215 ± 0.098
D8C | 0.054 ± 0.098
T4M | 0.13 ± 0.12
T4L | -0.11 ± 0.094
T4K | -0.16 ± 0.12
T4H | -0.549 ± 0.36
T4P | -0.159 ± 0.13
T4R | -0.393 ± 0.086
T4W | -1.13 ± 0.16
T4G | -0.256 ± 0.083
T4Y | -0.005 ± 0.2
T4F | 0.125 ± 0.14
T4S | -0.191 ± 0.095
T4N | 0.134 ± 0.19
T4V | -0.13 ± 0.089
T4D | 0.029 ± 0.14
T4I | -0.02 ± 0.16
D9G | -0.068 ± 0.062
D9I | -0.176 ± 0.11
D9A | 0.088 ± 0.078
D9P | -0.074 ± 0.085

Variant | abundance fitness
D9M | -0.082 ± 0.089
D9K | 0.046 ± 0.098
D9L | -0.106 ± 0.072
D9F | -0.013 ± 0.13
D9C | 0.158 ± 0.1
R3P | -0.108 ± 0.14
R3K | -0.25 ± 0.14
R3N | 0.016 ± 0.17
R3G | 0.143 ± 0.066
R3D | 0.215 ± 0.14
R3M | 0.293 ± 0.11
R3L | -0.014 ± 0.082
R3Y | -0.085 ± 0.19
R3E | 0.184 ± 0.089
R3H | 0.172 ± 0.15
R3S | 0.034 ± 0.087
R3T | 0.197 ± 0.12
R3Q | -0.062 ± 0.14
R3C | -0.426 ± 0.13
R3W | -0.57 ± 0.1
R3V | 0.006 ± 0.075
R3F | -0.275 ± 0.15
